Data: IntAct's records for PubMed 19490898

B1: Ras-related protein Rab-9A (Canis familiaris (dog)), P24408 (parent)
chain: MAGKSSLFKVILLGDGGVGKSSLMNRYVTNKFDTQLFHTIGVEFLNKDLEVDGHFVTMQIWDTAGQERFRSLRTPFYRGSDCCLLTFSVDDSQSFQNLSNWKKEFIYYADVKEPESFPFVILGNKIDISERQVSTEEAQAWCRDNGDYPYFETSAKDATNVAAAFEEAVRRVLATEDRSDHLIQTDTVSLHRKPKPSSSCC

Variants of: B1
Details: with rhbt3_human RHOBTB3, O94955
Sequence of rhbt3_human RHOBTB3, O94955 (O94955 whole entry): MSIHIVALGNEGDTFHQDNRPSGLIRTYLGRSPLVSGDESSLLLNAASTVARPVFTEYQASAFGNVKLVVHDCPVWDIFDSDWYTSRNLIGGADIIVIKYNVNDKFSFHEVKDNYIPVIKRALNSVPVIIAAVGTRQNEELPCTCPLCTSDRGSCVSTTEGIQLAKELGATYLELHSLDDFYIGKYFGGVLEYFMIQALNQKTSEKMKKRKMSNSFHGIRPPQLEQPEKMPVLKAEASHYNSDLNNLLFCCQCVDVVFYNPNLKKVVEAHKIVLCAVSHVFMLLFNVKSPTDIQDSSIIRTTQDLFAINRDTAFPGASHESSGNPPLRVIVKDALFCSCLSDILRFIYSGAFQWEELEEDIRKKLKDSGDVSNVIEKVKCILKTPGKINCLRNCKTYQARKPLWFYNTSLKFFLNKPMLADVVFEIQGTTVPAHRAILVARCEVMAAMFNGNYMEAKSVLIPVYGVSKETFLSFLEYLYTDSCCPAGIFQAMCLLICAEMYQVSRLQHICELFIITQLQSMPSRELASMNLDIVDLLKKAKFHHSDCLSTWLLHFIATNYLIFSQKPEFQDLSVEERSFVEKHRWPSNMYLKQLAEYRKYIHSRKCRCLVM

Variant	effect of a mutation on the interaction
S21N	decreasing interaction
